Laboratory results from article doi:10.1101/2025.10.27.684804.

Biological target: peptide containing the APP12 polyproline motif and a N-terminal TAMRA label
Test: fluorescence polarisation

**Q.** “naive fusion of bmTyr and Fyn-SH3 linked by a short glycine/serine linker (from UniProt P06241 84-141) (enzyme)” was tested. Which Kd did it give?
**A.** < 2000 nM
